Series [1] concerns the molecule itself. The series can be described thus: ultracentrifugal analysis of self-association: 28 kDa measured, 26 kDa predicted. As for the experimental part: An mKO protein solution with the composition consisting of 150 mM KCl and 50 mM HEPES-KOH (pH 7.4) was prepared. The molecular weight of mKO was determined by ultracentrifugal analysis. The above solution was centrifuged with an ultracentrifuge XL-1 (Beckman Coulter) at 25,000 rpm for 22 hours, so as to measure absorption at 540 nm around the maximum absorption (548 nm) of mKO. From the measurement results, the molecular weight of mKO was calculated to be 28 kDa (FIG. 3). This value was almost the same as 26 kDa predicted from the amino acid sequence, and thus it was confirmed that mKO exists in the form of a monomer.

Series [2] deals with the molecule itself. As to the kind of experiment: ultracentrifugal molecular weight measurement of self-association.

B1: monomerized Kusabira-Orange (mKO) (other)
chain: MVSVIKPEMKMRYYMDGSVNGHEFTIEGEGTGRPYEGHQEMTLRVTMAKGGPMPFAFDLVSHVFCYGHRPFTKYPEEIPDYFKQAFPEGLSWERSLEFEDGGSASVSAHISLRGNTFYHKSKFTGVNFPADGPIMQNQSVDWEPSTEKITASDGVLKGDVTMYLKLEGGGNHKCQFKTTYKAAKKILKMPGSHYISHRLVRKTEGNITELVEDAVAHS
notes: also called KO mutant
For the protein B1, the binding result in series [1] is given as “no binding”.

B2: cmkeima 620 (other)
chain: MRGSHHHHHHGMASMTGGQQMGRDLYDDDDKDPMVSVIAKQMTYKVYMSGTVNGHYFEVEGDGKGKPYEGEQTVKLTVTKGGPLPFAWDILSPQFQYGSIPFTKYPEDIPDYFKQSFPEGYTWERSMNFEDGAVCTVSNDSSIQGNCFIYNVKISGENFPPNGPVMQKKTQGWEPSTERLFARDGMLIGNDYMALKLEGGGHYLCEFKSTYKAKKPVRMPGRHEIDRKLDVTSHNRDYTSVEQCEIAIARHSLLG
On to B2, for which the binding result in series [2] is recorded as “no binding”.

(Values after patent US20070292909A1 (RIKEN, published 2007).)
